B1: PPP2R2C (parent)
chain: YSSSKGSLRLCDMRAAALCDKHSK
B2: TRAF3IP2 (parent)
chain: PRPPSNPPARGTLKTSNLPEELRK

Variants of: B1
Assay: protein stability index of a GFP-peptide fusion (GPS, HEK-293T) (PSI 1-6); higher = more stable
Conditions: c terminus: a fixed tail appended
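Note: lentivirally expressed fusions sorted by FACS into six bins by GFP to DsRed ratio, PSI derived from sequencing read proportions per bin multiplied by bin number.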

Variant	protein stability index
YESSKGSLRLCDMRAAALCDKHSK	3.84
YKSSKGSLRLCDMRAAALCDKHSK	3.58
YGSSKGSLRLCDMRAAALCDKHSK	2.46
YNSSKGSLRLCDMRAAALCDKHSK	3.28
YRSSKGSLRLCDMRAAALCDKHSK	2.98
YLSSKGSLRLCDMRAAALCDKHSK	2.52
YYSSKGSLRLCDMRAAALCDKHSK	2.94
YWSSKGSLRLCDMRAAALCDKHSK	1.89
YCSSKGSLRLCDMRAAALCDKHSK	1.92
YPSSKGSLRLCDMRAAALCDKHSK	2.5
YISSKGSLRLCDMRAAALCDKHSK	1.54
YTSSKGSLRLCDMRAAALCDKHSK	2
YMSSKGSLRLCDMRAAALCDKHSK	1.72
YFSSKGSLRLCDMRAAALCDKHSK	2.8
YQSSKGSLRLCDMRAAALCDKHSK	1.94
YDSSKGSLRLCDMRAAALCDKHSK	3.89
YHSSKGSLRLCDMRAAALCDKHSK	2
YASSKGSLRLCDMRAAALCDKHSK	2.44
YSSAKGSLRLCDMRAAALCDKHSK	2.44
YSSKKGSLRLCDMRAAALCDKHSK	1.34
YSSWKGSLRLCDMRAAALCDKHSK	1.63
YSSPKGSLRLCDMRAAALCDKHSK	2.57
YSSGKGSLRLCDMRAAALCDKHSK	2.87

Variant	protein stability index
YSSTKGSLRLCDMRAAALCDKHSK	1.8
YSSCKGSLRLCDMRAAALCDKHSK	1.38
YSSHKGSLRLCDMRAAALCDKHSK	2.09
YSSFKGSLRLCDMRAAALCDKHSK	2.27
YSSIKGSLRLCDMRAAALCDKHSK	2.06
YSSRKGSLRLCDMRAAALCDKHSK	2.11
YSSVKGSLRLCDMRAAALCDKHSK	2.45
YSSDKGSLRLCDMRAAALCDKHSK	2.96
YSSNKGSLRLCDMRAAALCDKHSK	2.32
YSSQKGSLRLCDMRAAALCDKHSK	2.32
YSSYKGSLRLCDMRAAALCDKHSK	1.98
YSSLKGSLRLCDMRAAALCDKHSK	2.62
YSSEKGSLRLCDMRAAALCDKHSK	2.78
YSSMKGSLRLCDMRAAALCDKHSK	2
YSSSIGSLRLCDMRAAALCDKHSK	2.19
YSSSQGSLRLCDMRAAALCDKHSK	2.12
YSSSNGSLRLCDMRAAALCDKHSK	1.43
YSSSRGSLRLCDMRAAALCDKHSK	1.85
YSSSSGSLRLCDMRAAALCDKHSK	2.27
YSSSHGSLRLCDMRAAALCDKHSK	1.68
YSSSPGSLRLCDMRAAALCDKHSK	2.03
YSSSLGSLRLCDMRAAALCDKHSK	1.93
YSSSFGSLRLCDMRAAALCDKHSK	1.84

Variant	protein stability index
YSSSGGSLRLCDMRAAALCDKHSK	1.49
YSSSCGSLRLCDMRAAALCDKHSK	1.68
YSSSTGSLRLCDMRAAALCDKHSK	2.23
YSSSEGSLRLCDMRAAALCDKHSK	1.73
YSSSAGSLRLCDMRAAALCDKHSK	1.65
YSSSDGSLRLCDMRAAALCDKHSK	2.06
YSSSMGSLRLCDMRAAALCDKHSK	2.1
YSWSKGSLRLCDMRAAALCDKHSK	2.15
YSNSKGSLRLCDMRAAALCDKHSK	2.48
YSMSKGSLRLCDMRAAALCDKHSK	2.84
YSGSKGSLRLCDMRAAALCDKHSK	1.95
YSTSKGSLRLCDMRAAALCDKHSK	2.11
YSVSKGSLRLCDMRAAALCDKHSK	1.96
YSYSKGSLRLCDMRAAALCDKHSK	1.83
YSKSKGSLRLCDMRAAALCDKHSK	2.37
YSCSKGSLRLCDMRAAALCDKHSK	3.48
YSQSKGSLRLCDMRAAALCDKHSK	2.45
YSPSKGSLRLCDMRAAALCDKHSK	2.79
YSESKGSLRLCDMRAAALCDKHSK	2.53
YSHSKGSLRLCDMRAAALCDKHSK	2.52
YSASKGSLRLCDMRAAALCDKHSK	2.93
YSDSKGSLRLCDMRAAALCDKHSK	2.92
YSRSKGSLRLCDMRAAALCDKHSK	2.29

Variant	protein stability index
YSFSKGSLRLCDMRAAALCDKHSK	2.39
YSISKGSLRLCDMRAAALCDKHSK	3.06
YSLSKGSLRLCDMRAAALCDKHSK	2.7
GSSSKGSLRLCDMRAAALCDKHSK	3.72
PSSSKGSLRLCDMRAAALCDKHSK	3.65
TSSSKGSLRLCDMRAAALCDKHSK	4.13
RSSSKGSLRLCDMRAAALCDKHSK	3.81
MSSSKGSLRLCDMRAAALCDKHSK	3.54
ISSSKGSLRLCDMRAAALCDKHSK	3.73
CSSSKGSLRLCDMRAAALCDKHSK	2.98
HSSSKGSLRLCDMRAAALCDKHSK	3.72
QSSSKGSLRLCDMRAAALCDKHSK	3.95
NSSSKGSLRLCDMRAAALCDKHSK	3.81
DSSSKGSLRLCDMRAAALCDKHSK	4.63
LSSSKGSLRLCDMRAAALCDKHSK	3.65
FSSSKGSLRLCDMRAAALCDKHSK	2.31
ASSSKGSLRLCDMRAAALCDKHSK	3.93
WSSSKGSLRLCDMRAAALCDKHSK	2.92
KSSSKGSLRLCDMRAAALCDKHSK	3.79
VSSSKGSLRLCDMRAAALCDKHSK	3.56
SSSSKGSLRLCDMRAAALCDKHSK	3.74
ESSSKGSLRLCDMRAAALCDKHSK	4.47

Variants of: B2
Assay: as above
Conditions: c terminus: a fixed tail appended

Variant	protein stability index
PRPPSNPPARGTLKTSNLPEPLRK	3.62
PRPPSNPPARGTLKTSNLPEWLRK	3.69
PRPPSNPPARGTLKTSNLPESLRK	3.97
PRPPSNPPARGTLKTSNLPEDLRK	4.71
PRPPSNPPARGTLKTSNLPETLRK	4.46
PRPPSNPPARGTLKTSNLPEILRK	4.29
PRPPSNPPARGTLKTSNLPEALRK	4.6
PRPPSNPPARGTLKTSNLPELLRK	4.26
PRPPSNPPARGTLKTSNLPEVLRK	3.74
PRPPSNPPARGTLKTSNLPECLRK	4.19
PRPPSNPPARGTLKTSNLPEQLRK	5.04
PRPPSNPPARGTLKTSNLPEKLRK	4.26
PRPPSNPPARGTLKTSNLPEMLRK	3.06
PRPPSNPPARGTLKTSNLPENLRK	4.6
PRPPSNPPARGTLKTSNLPEYLRK	4.23
PRPPSNPPARGTLKTSNLPERLRK	4.2
PRPPSNPPARGTLKTSNLPEFLRK	3.73
PRPPSNPPARGTLKTSNLPEGLRK	4.36
PRPPSNPPARGTLKTSNLPEHLRK	3.94
PRPPSNPPARGTLKTSNLPDELRK	4.81
PRPPSNPPARGTLKTSNLPVELRK	3.41
PRPPSNPPARGTLKTSNLPKELRK	4.2
PRPPSNPPARGTLKTSNLPRELRK	4.48
PRPPSNPPARGTLKTSNLPHELRK	3.96
PRPPSNPPARGTLKTSNLPYELRK	3.95

Variant	protein stability index
PRPPSNPPARGTLKTSNLPSELRK	4.52
PRPPSNPPARGTLKTSNLPMELRK	4.14
PRPPSNPPARGTLKTSNLPPELRK	4.21
PRPPSNPPARGTLKTSNLPNELRK	4.61
PRPPSNPPARGTLKTSNLPCELRK	4.44
PRPPSNPPARGTLKTSNLPQELRK	4.67
PRPPSNPPARGTLKTSNLPAELRK	4.41
PRPPSNPPARGTLKTSNLPIELRK	3.44
PRPPSNPPARGTLKTSNLPFELRK	4.06
PRPPSNPPARGTLKTSNLPWELRK	4
PRPPSNPPARGTLKTSNLPTELRK	4.25
PRPPSNPPARGTLKTSNLPLELRK	4.1
PRPPSNPPARGTLKTSNLPGELRK	5.51
PRPPSNPPARGTLKTSNLPEEYRK	4.47
PRPPSNPPARGTLKTSNLPEEPRK	5.15
PRPPSNPPARGTLKTSNLPEEFRK	4.24
PRPPSNPPARGTLKTSNLPEERRK	4.82
PRPPSNPPARGTLKTSNLPEEERK	5.61
PRPPSNPPARGTLKTSNLPEEWRK	4.25
PRPPSNPPARGTLKTSNLPEEARK	4.55
PRPPSNPPARGTLKTSNLPEEMRK	4.75
PRPPSNPPARGTLKTSNLPEEKRK	4.97
PRPPSNPPARGTLKTSNLPEEVRK	3.16
PRPPSNPPARGTLKTSNLPEENRK	4.93
PRPPSNPPARGTLKTSNLPEECRK	5.65

Variant	protein stability index
PRPPSNPPARGTLKTSNLPEETRK	5.4
PRPPSNPPARGTLKTSNLPEEQRK	5.39
PRPPSNPPARGTLKTSNLPEESRK	4.96
PRPPSNPPARGTLKTSNLPEEGRK	4.15
PRPPSNPPARGTLKTSNLPEEHRK	5.11
PRPPSNPPARGTLKTSNLPEEIRK	4.56
PRPPSNPPARGTLKTSNLPEEDRK	5.22
PRPPSNPPARGTLKTSNLPEELGK	4.7
PRPPSNPPARGTLKTSNLPEELFK	3.92
PRPPSNPPARGTLKTSNLPEELAK	4.7
PRPPSNPPARGTLKTSNLPEELCK	4.64
PRPPSNPPARGTLKTSNLPEELPK	5.21
PRPPSNPPARGTLKTSNLPEELIK	4.39
PRPPSNPPARGTLKTSNLPEELMK	4.31
PRPPSNPPARGTLKTSNLPEELLK	4.19
PRPPSNPPARGTLKTSNLPEELHK	4.7
PRPPSNPPARGTLKTSNLPEELTK	4.77
PRPPSNPPARGTLKTSNLPEELSK	5.16
PRPPSNPPARGTLKTSNLPEELYK	4.47
PRPPSNPPARGTLKTSNLPEELVK	4.13
PRPPSNPPARGTLKTSNLPEELWK	3.42
PRPPSNPPARGTLKTSNLPEELQK	5.23
PRPPSNPPARGTLKTSNLPEELEK	4.94
PRPPSNPPARGTLKTSNLPEELKK	4.92
PRPPSNPPARGTLKTSNLPEELDK	4.9

Variant	protein stability index
PRPPSNPPARGTLKTSNLPEELNK	5.2
PRPPSNPPARGTLKTSNLPEELRW	4.19
PRPPSNPPARGTLKTSNLPEELRD	5.14
PRPPSNPPARGTLKTSNLPEELRE	4.99
PRPPSNPPARGTLKTSNLPEELRM	4.26
PRPPSNPPARGTLKTSNLPEELRL	4.31
PRPPSNPPARGTLKTSNLPEELRH	4.79
PRPPSNPPARGTLKTSNLPEELRT	4.8
PRPPSNPPARGTLKTSNLPEELRC	4.9
PRPPSNPPARGTLKTSNLPEELRY	3.78
PRPPSNPPARGTLKTSNLPEELRG	4.05
PRPPSNPPARGTLKTSNLPEELRR	4.75
PRPPSNPPARGTLKTSNLPEELRV	4.53
PRPPSNPPARGTLKTSNLPEELRF	4.33
PRPPSNPPARGTLKTSNLPEELRI	4.24
PRPPSNPPARGTLKTSNLPEELRQ	4.66
PRPPSNPPARGTLKTSNLPEELRA	4.86
PRPPSNPPARGTLKTSNLPEELRS	4.7
PRPPSNPPARGTLKTSNLPEELRN	4.87
PRPPSNPPARGTLKTSNLPEELRP	3.9
PRPPSNPPARGTLKTSNLWEELRK	3.98
PRPPSNPPARGTLKTSNLYEELRK	3.54

Source: the supplement of paper PMC10567573
